{
  "source": "paper PMC9299544",
  "key": {"[1]": {"target": "chicken skeletal muscle actin (ADP F-actin) (chicken) (UniProt P68139)", "test": "cryo-EM structure; rigor state: 6 uM myosin-15 treated with apyrase (10 U/ml), applied twice to 0.6 uM ADP F-actin on the grid; KMEI buffer with 0.01% NP-40 substitute; 25°C; helical reconstruction, symmetry expansion and focused classification"}, "[2]": {"target": "chicken skeletal muscle actin (ADP F-actin) (chicken) (UniProt P68139)", "test": "cryo-EM structure; Mg-ADP state: wild-type myosin-15 incubated with 5 mM ADP-Mg for 20 min, applied to 0.6 uM ADP F-actin on the grid; else as for the rigor samples"}, "F-actin [3]": {"target": "F-actin (UniProt P68133)", "settings": "cited from earlier work"}, "F-actin [4]": {"target": "F-actin (UniProt P68133)", "settings": "cited from earlier work", "remark": "listed apart in the source"}, "[5]": {"target": "wild-type mouse myosin-15 motor domain with 2 IQ motifs (MD-2IQ), heavy chain (mouse)", "test": "SEC; heavy chain, ELC and RLC co-expressed in Sf9; FLAG M2 resin, MonoQ, then Superdex 200 in 10 mM Mops, 100 mM KCl, 0.1 mM EGTA, pH 7.0; single peak"}},
  "note": "Read-outs that look alike come from different tables or passages of the source.",
  "data": [
    {"substance": "wild-type mouse myosin-15 motor domain with 2 IQ motifs (MD-2IQ), as the myosin-15:ELC:RLC complex (from UniProt P60661 1-151)", "values": [
      {"measurement": "stoichiometry N", "setting": "[1]", "result": 1},
      {"measurement": "stoichiometry N", "setting": "[2]", "result": 1}
    ]},
    {"substance": "myosin-15 motor domain (from UniProt Q9QZZ4)", "values": [
      {"measurement": "Kd", "setting": "F-actin [3]", "result": 310, "unit": "nM"},
      {"measurement": "Kd", "setting": "F-actin [4]", "result": 200, "unit": "nM"}
    ]},
    {"substance": "chicken regulatory light chain (RLC; MYL12B) (natural protein)", "values": [
      {"measurement": "stoichiometry N", "setting": "[5]", "result": 1}
    ]},
    {"substance": "bovine smooth muscle essential light chain (ELC; MYL6) (from UniProt P60661 1-151) (natural protein)", "values": [
      {"measurement": "stoichiometry N", "setting": "[5]", "result": 1}
    ]}
  ]
}
